Key:
[1] = biological target: rat α-syn (rat, UniProt P37377 1-140); assay: direct binding HTRF assay
[2] = biological target: disease relevant pathological forms of human α-syn in Parkinson's disease brain tissue (human, UniProt P37840 1-140); assay: immunohistochemistry of Parkinson's disease brain tissue
[3] = biological target: T1, 1-60 (human, UniProt P37840); assay: ELISA on coated α-syn truncates, anti-human IgG-HRP detection
T1 construct: residues 1-60, N-terminal region only; coated on ELISA wells; also called α-syn truncate 1-60; aa1-60
Procedure: (§1) Briefly, one microgram per milliliter of each truncate was coated to a microtitre well overnight at 4° C. […] Following 1 h incubation and washing the bound antibody was detected by addition of an anti-human IgG conjugated to either HRP or Eu³⁺. Subsequent to incubation and washing, the appropriate detection substrate was added (TMB or DELFIA Enhancer solution respectively) and the plate read on a microtitre plate reader.

[4] = biological target: T2, 1-95 (human, UniProt P37840); assay: as above
T2 construct: residues 1-95, N-terminal and NAC regions; coated on ELISA wells; also called α-syn truncate 1-95; aa1-95
Procedure: as §1

[5] = biological target: T3, NCAP (human, UniProt P37840-2); assay: as above
T3 construct: alternatively spliced form missing amino acids 103-129; coated on ELISA wells; also called alternatively spliced form of α-syn missing amino acids 103-129
Procedure: as §1

[6] = biological target: native, endogenously expressed intracellular human α-syn in SH-SY5Y neuroblastoma cells (human, UniProt P37840 1-140); assay: flow cytometry on fixed, permeabilised SH-SY5Y cells, anti-human IgG-FITC
Procedure: After extensive washes, bound antibody was detected by incubation with an anti-human or anti-mouse IgG-FITC secondary antibody. Following further washes the cells were analyzed with a FACS Canto II apparatus (Becton Dickinson, Franklin Lakes, N.J.) and data analysis was performed using FlowJo Software (Tree Star, Ashland, Oreg.).

[7] = biological target: T4, 61-140 (human, UniProt P37840); assay: ELISA on coated α-syn truncates (1 µg/ml coat, 1 µg/ml antibody), anti-human IgG-HRP detection
T4 construct: residues 61-140, NAC plus C-terminal region; coated on ELISA wells; also called α-syn truncate 61-140; aa61-140
Procedure: as §1

[8] = biological target: T5, 96-140 (human, UniProt P37840); assay: as above
T5 construct: residues 96-140, C-terminal region only; coated on ELISA wells; also called α-syn truncate 96-140; C-terminal region only
Procedure: as §1

[9] = biological target: T6, ΔNAC (human, UniProt P37840); assay: as above
T6 construct: NAC region deleted; coated on ELISA wells; also called ANAC; α-syn with NAC region deleted
Procedure: as §1

[10] = biological target: human alpha-synuclein (recombinant) (human, UniProt P37840 1-140); assay: as above
Procedure: as §1

[11] = biological target: T7, human beta-synuclein (recombinant) (human, UniProt Q16143 1-134); assay: HTRF epitope competition: unlabelled synuclein titrated against biotinylated human α-syn for binding to aslo0543
T7 construct: also called β-syn; β-synuclein
Procedure: (§2) IC₅₀ values were determined by curve fitting the data to a four parameter logistic equation using PRISM 6® software (Graphpad). […] For the negative control, the antibody test sample was replaced with an isotype control antibody or buffer only.

[12] = biological target: T8, human gamma-synuclein (recombinant) (human, UniProt O76070 1-127); assay: as above
T8 construct: also called γ-syn; γ-synuclein
Procedure: as §2

[13] = biological target: aggregated human α-syn (human, UniProt P37840 1-140); assay: DELFIA pair-wise capture ELISA: mouse IgG1 version of the antibody as capture, human IgG1 TM version of the same antibody as detection, anti-human IgG-Eu
Procedure: Subsequent to incubation and washing, the appropriate detection substrate was added (TMB or DELFIA Enhancer solution respectively) and the plate read on a microtitre plate reader.

[14] = biological target: T7, human beta-synuclein (recombinant); assay: HTRF epitope competition: unlabelled synuclein titrated against biotinylated human α-syn for binding to aslo0452 ngl-3
Procedure: as §2

[15] = biological target: T8, human gamma-synuclein (recombinant); assay: as above
Procedure: as §2

Binder	binding result [1]	binding result [2]	binding result [3]	binding result [4]	binding result [5]	binding result [6]	binding result [7]	binding result [8]	binding result [9]	binding result [10]	binding result [11]	binding result [12]	binding result [13]	binding result [14]	binding result [15]
aslo0543 (antibody, human IgG1, lambda, V domains shown, also called aslo0543 IgG) VH: not shown VL: QAVLTQPASLSASPGASASLTCTLRSSGDFSRYRIYWYQQKPGSPPQYLLRYKSDADKHQGSGVPSRFSGSKDASANAGILLISGLQSEDEADYYCMVWSSGAWYFGGGTKLTVLG	binds	binds	no binding (tested: 1 µg/ml (single concentration))	no binding (tested: 1 µg/ml (single concentration))	no binding (tested: 1 µg/ml (single concentration))	binds	binds	binds	binds	binds	no binding	no binding	binds		
aslo0452 ngl-3 (antibody, human IgG1, lambda, V domains shown, also called aslo0452 ngl-3 IgG; aslo0452-ngl3-hIgG1TM) VH: EVQLLESGGGLVQPGGSLRLSCAASGFTFSSYAMSWVRQAPGKGLEWVSSISHLGGSTYYADSVKGRFTISRDNSKNTLYLQMNSLRAEDTAVYYCAGGANHGKYYYGMDKWGQGTTVTVSS VL: QAVLTQPASLSASPGASASLTCTLRSGAPLPKYRIYWYQQKPGSPPQYLLRYKSDADKHQGSGVPSRFSGSKDASANAGILLISGLQSEDEADYYCMVWDHGVWYFGGGTKLTVLG			no binding (tested: 1 µg/ml (single concentration))					binds	binds					no binding	no binding

— patent US20210179698A1 (AstraZeneca / MedImmune, published 2021)
